± gives the uncertainty stated by the source.

From the supplement of paper PMC12042874 come the findings set out here.

The data set is described as follows: amyloid nucleation score (Sup35N fusion, yeast selection) (log enrichment); library NNK3; higher = more nucleation; inactive = no reads after selection. The method in brief:
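Random libraries were run with three technical output replicates. In each, psi-negative yeast expressing Sup35N fused to peptides of 20 random codons were induced 24 hours with 100 μM copper sulfate and grown 7 days at 30°C on medium lacking adenine and uracil, and input and output plasmid inserts were Illumina-sequenced. The nucleation score is the DiMSum log enrichment of output over input reads, centred on the mode score of non-aggregating sequences, and sequences under 100 input reads were excluded.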
Take TVLFEIYMNEVMNGFLICST: the amyloid nucleation score result is “inactive”.
SVSLCFYFGIDYRILLMPEN yielded an amyloid nucleation score of 0.088 ± 0.73.
Turning to DFRHSMEASWKIWIRAGTRE, the amyloid nucleation score entry is “inactive”.
Then QAFDFTHHPFHDRSWNGHWS, with “inactive”; and TGSVVYLKRDVPAIFKFLLV, with “inactive”; and LSYKIIYTGIGCEYAYGFIE, with “inactive”.
With NFDTDGTALRKLR, the amyloid nucleation score result was “inactive”.
The figure for IFFQCNVAMQKDSDAKGTYV is 1.84 ± 0.067.
The entry for MYYAN is “inactive”; for CCGMYYNSMASNVWSER it is 2.17 ± 0.084.
Then VSGLDWFM, with “inactive”.
LLKVSGYWLMLRGLTRKFMG had an amyloid nucleation score of -0.047 ± 1.1.
Then SFLVSSINNVQGFFSVNGYV, with 0.085 ± 0.26.
Then LKVMWLWSAKINYMSIVENL, with “inactive”.
The figure for RCDCLRRNGSLHSQFNVSGG is 1.02 ± 0.2; for TLTLAFARGDAYPSIARLV it is “inactive”.
For the substance FPGNLSLNGVIHMFLYDKLW, the amyloid nucleation score entry was “inactive”.
Then GLFSLIIR, with “inactive”; and WCARSTWKISIEY, with “inactive”.
As to WVLDQRNSLSKCKLG, the amyloid nucleation score result was “inactive”.
The entry for CFAVWHISVEMYVRDRW is “inactive”; for TVMPIYQCSIGVKFSCDSAK it is 1.53 ± 0.072.
Then YALCPVRPGSQQGKLGVTFL, with 0.503 ± 0.45.
On to GDSLWIFTAGIDCSYRLIFD, for which the amyloid nucleation score entry is “inactive”.
On to WQWVM, for which the amyloid nucleation score result is “inactive”.
Turning to KYWSLGNGCTTKRWSGGFVS, the amyloid nucleation score entry was “inactive”.
With VFEVVYV, the amyloid nucleation score entry is “inactive”.
Consider NHIYGMSAFQSGHCGPCRSN, for which the amyloid nucleation score entry is “inactive”.
In the case of PEFMTVLDVTMSYWWESCLG, the amyloid nucleation score result was “inactive”.
Then VKWLLGMSEWKG, with -0.877 ± 2.4; and VISFLMKLRWYCTVHGSGGM, with “inactive”.
Take LSSCLSRI: the amyloid nucleation score result was “inactive”.
Take NSNYSVG: the amyloid nucleation score result was “inactive”.
Then DWNISLNLQDIGRRSLPIFA, with “inactive”.
Regarding DSISISY, the amyloid nucleation score result is “inactive”.
Then ILSNDEFTCKFCCSCSYRGG, with 0.956 ± 0.31; and LGAAFCAPSSSYGKMGP, with “inactive”; and DRWVQAGSHTFTFLWDCERA, with “inactive”.
Consider PVNYVYLTRFH, for which the amyloid nucleation score entry was “inactive”.
The entry for LDTDGSICCCPRAIAHLL is “inactive”; for DHCRNKQCVPTWDAYLEQ it is -0.339 ± 0.52; for YALMLVFERHSRAARSVGMG it is “inactive”.
VMVAMTFNWHDALILWDGMV: the amyloid nucleation score result is “inactive”.
In the case of NRVSGALKPLVVS, the amyloid nucleation score entry was “inactive”.
Then CFLYLLLQTN, with “inactive”; and GFSCVNFFAWIL, with 1.81 ± 0.082; and HSYFDFYSYDSYNVRHRSVK, with “inactive”.
Consider DVPGIGCEGKALRRLGFLLR, for which the amyloid nucleation score result is “inactive”.
The entry for YEMIKFSKY is “inactive”; for RRSSRSRRHAKRRRAIVRCG it is “inactive”.
The substance ITSSVSFSRPYGVRGLLKKG displayed an amyloid nucleation score of 0.002 ± 0.43.
For the substance GLFCNVFMNKCSS, the amyloid nucleation score result was “inactive”.
Then AKYFKFKHNVKGVHWKHVPE, with -0.074 ± 0.53; and QRSEV, with “inactive”.
